Results from publication PMC10079672, “Construction of a synthetic metabolic pathway for biosynthesis of 2,4-dihydroxybutyric acid from ethylene glycol” (Nature Communications, 2023).
One block for each molecule: values may come before it.

Tests used:
Go.Adh = biological target: T1, Go.Adh (Gluconobacter oxydans, UniProt Q5FU50); experiment: ethylene glycol dehydrogenase activity in protein extract; empty-plasmid extract inactive; format: biochemical; details: 50 mM ethylene glycol; NAD+
T1 construct: gene GOX0313; expressed from pEXT20 in E. coli TW64; protein extract
T1 sequence (Q5FU50 1-343): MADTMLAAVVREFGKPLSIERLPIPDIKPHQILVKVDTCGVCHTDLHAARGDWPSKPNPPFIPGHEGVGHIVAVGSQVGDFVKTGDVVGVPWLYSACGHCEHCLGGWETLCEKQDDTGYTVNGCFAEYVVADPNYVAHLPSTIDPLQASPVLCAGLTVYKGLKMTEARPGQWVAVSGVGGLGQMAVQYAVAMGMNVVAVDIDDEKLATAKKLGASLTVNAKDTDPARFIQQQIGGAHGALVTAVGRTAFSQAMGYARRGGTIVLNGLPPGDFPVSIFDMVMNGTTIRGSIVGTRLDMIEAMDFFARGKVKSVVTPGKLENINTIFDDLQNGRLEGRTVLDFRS

Ec.FucO = biological target: T2, Ec.FucO (Escherichia coli, UniProt P0A9S1); experiment: as above; format: biochemical; details: 50 mM ethylene glycol; NAD+
T2 construct: expressed from pEXT20 in E. coli TW64; protein extract
T2 sequence (P0A9S1 1-382): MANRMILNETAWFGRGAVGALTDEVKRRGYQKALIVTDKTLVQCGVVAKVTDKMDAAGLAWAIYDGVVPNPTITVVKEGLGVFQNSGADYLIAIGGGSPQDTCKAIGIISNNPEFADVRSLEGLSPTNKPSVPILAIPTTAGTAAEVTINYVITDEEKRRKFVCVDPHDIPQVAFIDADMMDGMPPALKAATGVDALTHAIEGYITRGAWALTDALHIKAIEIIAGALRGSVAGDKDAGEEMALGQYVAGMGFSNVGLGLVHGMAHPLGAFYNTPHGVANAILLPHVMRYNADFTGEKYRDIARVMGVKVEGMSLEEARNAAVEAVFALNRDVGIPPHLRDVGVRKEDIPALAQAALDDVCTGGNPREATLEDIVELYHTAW

Hh.AraD = tested on: T3, Hh.AraD; details: 37 °C
T3 construct: gene E2K99_19880

Pc.TadH = biological target: T4, Pc.TadH (Trinickia caryophylli, UniProt A0A1X7DDC2); experiment: dehydrogenase activity, microplate; format: biochemical; details: NAD+ or NADP+; 37 °C
T4 construct: gene SAMN06295900_10348; N-terminal His tag (pET28a)
T4 sequence (A0A1X7DDC2 1-334): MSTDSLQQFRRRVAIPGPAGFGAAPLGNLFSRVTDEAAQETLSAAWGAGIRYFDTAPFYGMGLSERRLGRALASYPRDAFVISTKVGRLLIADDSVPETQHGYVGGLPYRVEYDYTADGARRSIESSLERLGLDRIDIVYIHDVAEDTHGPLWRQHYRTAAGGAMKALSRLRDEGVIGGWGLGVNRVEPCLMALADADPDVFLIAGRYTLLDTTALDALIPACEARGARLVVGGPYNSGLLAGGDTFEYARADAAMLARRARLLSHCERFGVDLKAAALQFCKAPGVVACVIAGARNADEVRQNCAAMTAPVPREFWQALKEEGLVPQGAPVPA

Sc.Ara1 = biological target: T5, Sc.Ara1 (Saccharomyces cerevisiae, UniProt P38115); experiment: dehydrogenase activity, microplate; format: biochemical; details: NAD+ or NADP+, 10 mM cofactor, 10 mM sugar; 37 °C
T5 construct: N-terminal His tag (pET28a)

Bm.Fdh = biological target: T6, Bm.Fdh (Burkholderia multivorans, UniProt A0A0H3KNE7); experiment: dehydrogenase activity, microplate; format: biochemical; details: NAD+ or NADP+, 10 mM cofactor, 10 mM sugar; 37 °C
T6 construct: gene BMULJ_04919; N-terminal His tag (pET28a)

purified protein = substrate: O=C(O)[C@@H](O)[C@H](O)CO; experiment: purified protein; details: 37 °C
[1] = substrate: C[C@H](O)[C@H]1OC(=O)[C@@H](O)[C@@H]1O; experiment: lactonase kinetics, Michaelis-Menten fit; format: biochemical, Thermogutta terrifontis; details: 37 °C
[2] = substrate: O=C1OC[C@@H](O)[C@@H]1O; experiment: lactonase kinetics, Michaelis-Menten fit; format: biochemical, Thermogutta terrifontis; details: 37 °C

T6 sequence (A0A0H3KNE7 whole entry): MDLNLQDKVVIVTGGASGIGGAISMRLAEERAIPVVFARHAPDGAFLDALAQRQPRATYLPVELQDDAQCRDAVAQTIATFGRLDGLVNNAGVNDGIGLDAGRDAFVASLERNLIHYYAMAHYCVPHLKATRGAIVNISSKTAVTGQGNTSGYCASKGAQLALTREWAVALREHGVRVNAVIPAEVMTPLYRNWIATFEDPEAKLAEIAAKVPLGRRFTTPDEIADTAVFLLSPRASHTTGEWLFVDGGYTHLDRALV

Molecule: OCCO [ethylene glycol]
activity (Go.Adh): all candidate enzymes were active on EG | activity (Ec.FucO): all candidate enzymes were active on EG

Km (Hh.AraD): 1210 µM
Molecule: O=C(O)[C@@H](O)[C@H](O)CO [D-threonate]

Molecule: O=C[C@@H](O)[C@H](O)CO [D-threose]
specific activity (no saturation up to 50 mM) (Pc.TadH): Sc.Ara1, Pc.TadH and Bm.Fdh displayed measurable activity on D-threose | specific activity (Sc.Ara1): Sc.Ara1, Pc.TadH and Bm.Fdh displayed measurable activity on D-threose | specific activity (Bm.Fdh): Sc.Ara1, Pc.TadH and Bm.Fdh displayed measurable activity on D-threose

B1: Aa.AraD (Paracidovorax avenae ATCC 19860) (protein)
chain: MSTDALATQSLLILNDRDNVAVARTELGAGMELRLAGGEVLEVMATVPAGHKIALRPIAKGDAVLKYGQVIGAASTPIGAGEHVHVHNVEMGDSSPTHLVGRAYVPTDPVEQPATFMGYVRADGRVGTRNYIGVISSVNCSATVCKAIAQAFTGPALGAYPGVDGVVAITHGTGCGMSGEGEGIELLRRTLSGYIAHPNFAAVLVIGLGCEVNQVEGLTGRLPLPEGRVRTMTIQDAGGTREAIAQGIDIVRDMAAAASGARRTQVPASHLVVGLQCGGSDGYSGISANPVLGAAVDMLVRHGGTAILSETPEIYGAEHLLTARAASAEVAERLMARLAWWEAYTQRNGANMNNNPSPGNKAGGITTILEKSLGAVAKGGGSGLMDVVEYAQPVHSRGLVFMDTPGYDPVSATGQVAGGANLICFTTGRGSTYGCKPTPSLKLATNTALFRNMGMDMDFNAGDVVDGTLGIAQAGRHLFELMLATASGDRTLSETHGLGDNEFVPWQLGAVM
Km (purified protein): 1.95 (±0.53) mM | Vmax (purified protein): 0.12 µmol/min/mg | Vmax/Km (purified protein): 62 µL/min/mg

B2: Tt.Lac11 (Thermogutta terrifontis) (protein)
chain: MRKLLGSSAIHVLSRRTGYGMYFLILALGVATQVVFGAEPSQNPSEKVAWIERADPGLDDLIAPDAQVEVLAEGFEWSEGPVWIPEGGYLLFSDVPKNTIYRWKEGQGIDIFLKPSGYTGFRERGGESGSNGLALDRQGRLLLCQHGDRRVARWEKGCFITLADQYEGKPLNSPNDLVVKSNGDIYFTDPPYGMTPEAQRDPNALGFCGVYRISADGKLTLLVRDMTRPNGIAFSPDEKTLYVAQSDPQRPLWMAFPVREDGTLGEGKVFFDAKPWQQSGLPGLPDGMKVDQKGNLFATGPGGVNIFRPDGTFLGRIRVKVPTANCAFGDDGSTLYITADMYLLRVKTKTKGLGF
notes: full-length with predicted N-terminal signal peptide; hexa-His tag (pET28a)
Km [1]: 0.84 (±0.06) × 10^-3 M | Km [2]: 2.92 (±0.13) mM | Vmax [2]: 1.76 µmol/min/mg | Vmax/Km [2]: 603 µL/min/mg
